Experiments:
olfr62 = test: CRE-luciferase reporter gene assay, olfr62; assay type: cell-based, mouse; settings: 293T cells expressing RTP1 variant
Method in brief: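 Receptor-transfected 293T cells carrying CRE-luciferase plus SV40-Renilla control, switched to CD293 medium 12 h post-transfection, then exposed to odorants for 4 h at 37 °C. Signal is dual-luciferase normalized activity, [Luc(N) − Luc(0)]/Renilla.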

S6 = test: Living-cell staining of cell-surface S6; assay type: cell-based, mouse; settings: accessory protein co-transfected in 293T cells
Method: 293T cells were maintained in minimal essential medium containing 10% fetal bovine serum (M10). Lipofectamine 2000 (Invitrogen) was used for transfection. In live-cell staining, 16 hours after transfection, cells were incubated in M10 containing anti rhodopsin antibody, 4D2 (see, e.g., Laird, D. W., and Molday, R. S. (1988) Invest Opthalmol V is Sci 29, 419-428; herein incorporated by reference in its entirety) and 15 mM NaN3 at 4 degrees C. for 1 hour. After washing, cells were incubated with Cy3-conjugated anti mouse IgG (Jackson Immunologicals), washed and mounted. For FACS analysis, 4D2 and PE-conjugated anti mouse IgG (Jackson Immunologicals) were used to monitor the Rho tagged receptor expression. Anti HA rabbit antibodies (Sigma) and Alexa 488 conjugated anti rabbit IgG (Molecular Probes) was used to stain the HA-β2 adrenergic receptor. To establish the Hana3a cells, 1 ug/ml of puromycin was used for selection. 96 colonies were picked and assayed using luciferase assay using OREG.

B1: RTP1-A1: RTP1 variant from deleting portions of RTP1-A; murine SEQ ID NO: 46, human SEQ ID NO: 47 (protein, listed as Mus musculus)
chain: MCKSVTTGEWKKVFYEKMEEVKPADSWDFIIDPNLKHNVLAPGWKQYLELHASGRFHCSWCWHTWQSPHVVILFHMYLDKAQRAGSVRMRVFKQLCYECGTARLDESSMLEENIESLVDNLITSLREQCYGERGGHYRIHVASRQDNRRHRGEFCEACQEGIVHWKPSEKLLEEEATTYTFSRAPSPTKPQAETGSGCNFCSIPWCLFWATVLMLIIYLQFSFRTSV
- OLFR62 activity as indicated by luciferase expression (olfr62): Increased enhancement
- cell-surface expression of S6 (S6): Increased cell-surface staining

— patent US7838288B2, “Modulators of odorant receptors” (Duke University, priority 2004, dated 2010)
